# From the DeepSol protein solubility set
# Test: soluble on expression in E. coli; label from the status in PepcDB or PDB records
row,Sequence,soluble on expression in E. coli
1,MRVLVRNDKDDFRVKAYAGTNGVLLAMDLDASRRQGLLGFAIEKQTGSKPWLFLFNSLTFPGKAHTFPQYNATPSDQAPLQKFRWADYAVNPGATLNYRVHLAYGNPDAPQLGESLQLSITADNGQPPGQRVIFNRAVAASQAFSRKFPELDALLSANKNLPIEKWPDAPRQWLENGLLEALLGFIQRATDASWSLDIAIYEYQLQAIIDAVNAAFDRGVQVRVLYHAAPGDADTTMNQASLQHLPEANKRGRVTHAIFHDKFIVLGRLDAAGQRQPQSVLCGSTNFTANGVYRQANVLHSLDHVDIATRYLEVFEQVWATPADVGATRTWLTRNNPMQPQAPLFAGFSPRSGQGDLAEFVDIINGARRDLLFVTAFALPDSILDALLGQPHDDVLRYGLQNTASRITGFHADRTAEFAATALLNNGLEGWLKEGLKGQKGNLLVHTKAIVTDFTSEAPVIISGSHNLSVGASQSNDENFLIIRGDIDLADRYGLELLRFYEHYRFRYFARQLALKQVQPLAVDDSWSNAYYLEGDLRQLSRLRFSGRLEHHHHHH,not soluble
2,MRVYVGVDTGGTFTDFVYWDGKEWRVLKIPSTPSNPAEAVLKGLEKLRRGKALDVVHGSTVATNALLERKGAKTALITNKGFEDVIEIGRQNRERLYDLYYRKPKPLVPRELRFGLNCRINAKGEVLKPINREELKEILKALKEKGVESVAVCMLHSYANPEHEKEVEEELKKNLSVFVSLSSEILPEFREYERCSTTVINAYVSPKMSKYLYYLKDRLREGDLFRVMQSNGGLISPETASKEAVRTILSGPAGGVIGALHLGKLAGFEKLITFDMGGTSTDVSLIYGTPNITTESKIDGLPVKVPMIDINTVGAGGGSIAYVDEGGALRVGPQSAGAQPGPICYGRGGKEITVTDANLFLGRLVPEHFLGGEMKLYPELLEEPFKEMAKKIGLAPTELAEGIIKVANSSMERAIRKVSVERGYNPEEFALFSFGGAGGLHAVLLAKSLNIPKVIIPRNPGLLSAVGMLFADIVKDKVTTVMLKEEEAKPETLEKLFLLMEEKVLSEMEGEGFPPEKVFVERFLDVRYKGQSYEITIPFGENFKETFEKEHERLYGYAHRGRKIEIVNLRIKATGIKEKPPLKEFKERGDKYPKDAILGEREVVFEGRLETFKVLDREKLVYGNVIDFPAIVVEYSSTTLIPPYATAEVDRYGNLIITLL,not soluble
3,MSADEFILQQKVHALYSNHRSWLQRWLYRKLGNACDAADLVQDTFISVITGGYADDIREPKPFLATIAGRLVAHRWRRNQLETAYLEALAALPVELMPSPEAHVLALEALLEIDRALDGLPTRVKEAFLLAHLEELSYAQIAERLNVSTSSVKQYLTRANRQCLFALSV,not soluble
4,MSADEPSPEDEKYLESLRDLLKISQEFDASNAKQNDEPEKTAVEVESAETRTDESEKSIDIPREQQLLPSERVEPLKSMVEPEYVKKVIRQMDTMTAEQLKQALMKIKVSTGGNKKTLRKRVAQYYRKENALLNRKMEPNADKTARFFDYLIAIDFECTCVEIIYDYPHEIIELPAVLIDVREMKIISEFRTYVRPVRNPKLSEFCMQFTKIAQETVDAAPYFREALQRLYTWMRKFNLGQKNSRFAFVTDGPHDMWKFMQFQCLLSNIRMPHMFRSFINIKKTFKEKFNGLIKGNGKSGIENMLERLDLSFVGNKHSGLDDATNIAAIAIQMMKLKIELRINQKCSYKENQRSAARKDEERELEDAANVDLTSVDISRRDFQLWMRRLPLKLSSVTRREFINEEYLDCDSCDDLTDDKVKHLHSCDIYEIFDEKTSASFTDSKCLIC,soluble
5,MSADGAEADGSTQVTVEEPVQQPSVVDRVASMPLISSTCDMVSAAYASTKESYPHVKTVCDAAEKGVRTLTAAAVSGAQPILSKLEPQIASASEYAHRGLDKLEENLPILQQPTEKVLADTKELVSSKVSGAQEMVSSAKDTVATQLSEAVDATRGAVQSGVDKTKSVVTGGVQSVMGSRLGQMVLSGVDTVLGKSEEWADNHLPLTDAELARIATSLDGFDVASVQQQRQEQSYFVRLGSLSERLRQHAYEHSLGKLRATKQRAQEALLQLSQVLSLMETVKQGVDQKLVEGQEKLHQMWLSWNQKQLQGPEKEPPKPEQVESRALTMFRDIAQQLQATCTSLGSSIQGLPTNVKDQVQQARRQVEDLQATFSSIHSFQDLSSSILAQSRERVASAREALDHMVEYVAQNTPVTWLVGPFAPGITEKAPEEKK,soluble
6,MSAEKPEVIITYCIQCQWLLRAAWLAQELLSTFSDDLGKVSLQPGTGGAFRITCDGVQLWERKADGGFPEAKVLKQRLRDQIDPARDLGHNDRQTPSNPQ,soluble
7,MSAEQVWQGNFEQLCLFHNLQGRWPGCREGALGRWCTIQRRDYRKGNMSDERKAQLERIGFPLALEHHHHHH,not soluble
8,MSAGVQLPLDLPWRPALGREHFLVAACNASAVALVEAWPHWPAPAACIHGPTGAGKTHLAQVFATRAAAVVLDPAVILGTDPLTLFEGGRAAVIEDADRAGLPEATLFHLLNAARQRGGSLLLTALSPPARWGVHLADLRSRLAALPAEGLCEPDDELMAAVLLKLFSDRGLDVAPGAIGYLLPRMERSFAAARDLVVHADALALREGRAVTVPLLRQLLATPDRADRLEHHHHHH,not soluble
9,MSAKEKFTSLSPAEFFKRNPELAGFPNPARALYQTVRELIENSLDATDVHGILPNIKITIDLIDDARQIYKVNVVDNGIGIPPQEVPNAFGRVLYSSKYVNRQTRGMYGLGVKAAVLYSQMHQDKPIEIETSPVNSKRIYTFKLKIDINKNEPIIVERGSVENTRGFHGTSVAISIPGDWPKAKSRIYEYIKRTYIITPYAEFIFKDPEGNVTYYPRLTNKIPKPPQEVKPHPYGVDREEIKILINNLKRDYTIKEFLVNEFQSIGDTTADKILELAGLKPNKKVKNLTEEEITRLVETFKKDEDFRSPSADSLSVIGEDLIELGLKKIFNPDFAASITRKPKAYQGHPFIVEAGVAFGGSIPVGEEPIVLRYANKIPLIYDEKSDVIWKVVEELDWKRYGIESDQYQMVVMVHLCSTKIPYKSAGKESIAEVENIEKEIKNALMEVARKLKQYLSEKRKEQEAKKKLLAYLKYIPEVSRSLATFLASGNKELVSKYQNEISEGLFKLISKKLDLINIEEYRKVYRVDSE,soluble
10,MSALNELLHDDAIDLNAHAETWQEAIAQAGALLEKTGAITSAYTESMISSVEEQGPYIVVAPGFAFAHARPSEAVKRTAIAWTRLDSPVEFHHSSNDPVTLVVALAAQDDQAHTAAMREIAQVLGSRRRDLDTVATVAELRGVLEASKRRKSRGVAGGATHVTAQDSVESKGKILTVCGNGLGTSLFLKNTLDQVLDTWGWGPFVSTEATDTISAKGRAKEADFLLTSEEIARTLGDVGVPVYVISNFTSEDEIDAALRELYDV,not soluble
11,MSAPAAGATAGGDDAADRNVEMWKIKRLIKSLELARGNGTSMISLIIPPKDQVARIQRMLAEEYGTASNIKSRVNRLSVLGAITSVQGRLKLYNKVPPNGLVVYCGTIMTDEGKEKKVNIDFEPFKAINTSLYLCDNKFHTEALQGLLADDNKFGFIIMDGNGCLFGTLQGNTREVLHKFTVDLPKKHGRGGQSAVRFARLRNEKRHNYVRKVAENSVEQFIKNDKVTVAGLILAGSADFKTELGQSDMFDQRLQAKMIKTVDIAYGGENGFNQAIELAADTLASVKFIQEKKLIGGYFDEISQDTGKYVFGVKDTLAALEMGAIETLICWENLDIVRYKMKNSLGEDILLNLRPDEEKDKSHFTDSETGQDMEIIETMPLLEWFANNYKNFGAALEIVTDKSQEGAQFVRGFGGIGGLLRYRVDLAHVDLEDELDNIDLDDY,not soluble
12,MSASSERELYEAWVELLSWMREYAQAKGVRFEKEADFPDFIYRMERPYDLPTTIMTASLSDGLGEPFLLADVSPRHAKLKRIGLRLPRAHIHLHAHYEPGKGLVTGKIPLTKERFFALADRAREALAFA,soluble
13,MSATLPCGMHKCQRLCHKGECLVDEPCKQPCTTPRADCGHPCMAPCHTSSPCPVTACKAKVELQ,soluble
14,MSATNLAVEQLQRVLLPRRGEPADVRSLYLLEAESNKERLEWEDRFSVSVPAGAEVSFQTYFNAFPASYWRRWSQLDSVVLKLKVSGEARVDLYRSKIDGARIGITGSVVKDDFIEFEVSLAPFEDGGWIWFDLTAETDATVEEAGWYAPHAPKAQIMPDGSEVGPFEARATVGIPTFNRPADAVAALEALASDPAVDAVIDTVIMPDQGNKHPADEPGYKAAVEHFGDRFFEFRQGNLGGSGGYSRIMFEALGGVDGKGEAGAAKSPYILYMDDDIAIEPDSVLRALQVARYAKSPILVGGQMLNLQERSHLHTMGEVVGGHDFMWTAAPHVHYDHDFSAHPLHDRGKFDDKPDAPNSRDLHRRIDVDFNGWWMCMIPRVVAEQIGQPLPLFIKWDDAEYGLRARKAGFPTATWPGIAIWHMAWSDKDDAIDWQAYFHLRNRLVVAAMYHQGSVDGIVRSMQKATFKHLLCLEYSTVAIQNEAMKDFLAGPDQLFSILDTSLPRIAAIRKTYPDAVVLPSATELPRATGAPGVPTKDIGGRLAPIKKAMWLAKGLKHSLSKEDASHHEVPQANFAPIEARWFSLSRVDGATVTTADGRGVVYRKRDRDKAKELGKEARALQKQVAERFDELSRAYRNAHPELVSREAWGKVFDEQ,not soluble
15,MSATTKELGNSLWDSLFGTPGVQLTDDDIQNMPYASQYMQLNGGPQLFVVLAFAEDGQQKWVTQDQATLVTQHGRLVKTLLGGDNLIEVNNLAADPLIKPAQIVDGASWTRTMGWTEYQQVRYATARSVFKWDGTDTVKVGSDETPVRVLDEEVSTDQARWHNRYWIDSEGQIRQSEQYLGADYFPVKTTLIKAAKQLEHHHHHH,soluble
16,MSAVLTAEDTLVLASTATPVEMELIMGWLGQQRARHPDSKFDILKLPPRNAPPAALTALVEQLEPGFASSPQSGEDRSIVPVRVIWLPPADRSRAGKVAALLPGRDPYHPSQRQQRRILRTDPRRARVVAGESAKVSELRQQWRDTTVAEHKRDFAQFVSRRALLALARAEYRILGPQYKSPRLVKPEMLASARFRAGLDRIPGATVEDAGKMLDELSTGWSQVSVDLVSVLGRLASRGFDPEFDYDEYQVAAMRAALEAHPAVLLFSHRSYIDGVVVPVAMQDNRLPPVHMFGGINLSFGLMGPLMRRSGMIFIRRNIGNDPLYKYVLKEYVGYVVEKRFNLSWSIEGTRSRTGKMLPPKLGLMSYVADAYLDGRSDDILLQGVSICFDQLHEITEYAAYARGAEKTPEGLRWLYNFIKAQGERNFGKIYVRFPEAVSMRQYLGAPHGELTQDPAAKRLALQKMSFEVAWRILQATPVTATGLVSALLLTTRGTALTLDQLHHTLQDSLDYLERKQSPVSTSALRLRSREGVRAAADALSNGHPVTRVDSGREPVWYIAPDDEHAAAFYRSSVIHAFLETSIVELALAHAKHAEGDRVAAFWAQAMRLRDLLKFDFYFADSTAFRANIAQEMAWHQDWEDHLGVGGNEIDAMLYAKRPLMSDAMLRVFFEAYEIVADVLRDAPPDIGPEELTELALGLGRQFVAQGRVRSSEPVSTLLFATARQVAVDQELIAPAADLAERRVAFRRELRNILRDFDYVEQIARNQFVAREFKARQGRDRILEHHHHHH,not soluble
17,MSCPYIDEDKIVGNVEMELKKGGTFDKLRKQAIEHVKDSKLVHRIENEMLVKVDEIIASSANLTQEEIQRKMKDFMNENAKMRNDINRQIRVEFEKEWVHDELDKEIDEKVNKQLENSI,not soluble
18,MSDALTLTAAKKNARNRIRAARLARSTADLHADNAAILNQLTALIRTINATRAAAYMPEVTEPGGVDFADNLTGILSELWIPKSLPNRQLVWGHYSGGDSVERGTFGILEPTTPSRSSDILHDVDLIIVPALGITPSGRRLGQGAGYYDRALAGVATPTVAILFDSEVNTTIPFEPHDATCDWIITPEGTKQVT,not soluble
19,MSDATNNAVLVRNLSPEVTKQTLLDFFSFCGEISAVKIRPSVGEGGSSSSGSPTEAMEALVIFENQSAKKTALVLDSATLKKRKISVMDATEELVSSFKDVREVDLARDSTDVPETATARQERLQGLREEFDRAIKRASDKLSDFNEKHRITEKVQEFGDLTKRKTQEINEQYRLTERAREGWQTVREKTRELDERLHLSESARDGWRSLKASVSKIMQKDRGGEVDKA,soluble
